This note sets out measurements from the DeepSol protein solubility set.

This series can be described thus: soluble on expression in E. coli; label from the status in PepcDB or PDB records.
In the case of “GMSRGHCILAHGFESGPDALKVTALAEVAERLGWTHERPDFTDLDARRDLGQLGDVRGRLQRLLEIARAATEKGPVVLAGSSLGSYIAAQVSLQVPTRALFLMVPPTKMGPLPALDAAAVPISIVHAWHDELIPAADVIAWAQARSARLLLVDDGHRLGAHVQAASRAFAELLQSL”, the “soluble on expression in E. coli” value is on record as “soluble”.
Regarding “MSLKFVGLVGSNAEQSYNRKLLEYIRKQFKLKFELELLEIDEVPMFNQDQSWKDSFQLRLLYNKIIRADGVIIATPEHNHTITAALKSVLEWLSCEVHPFENKPVMIVGASYYDQGTSRAQVHLRKILDAPGVNAYTLPGNEFLLGKAKEAFDDNGNIINQGTVDFLETCLDNFMSYVGVVSKLQKPKPIEPEDLDCNHPIATTITEVDPDDPEWVEKVAEITGAVSGDAYVKLDHGILTVDQINMFLKAMPFELTYADDNNQFLYYNNAHQDPDTMYAKRIPEQSGNRLSTVHNSLPAGRMKNVEWVIGTLRNGNQEYVRTLIPSPNPAVLNTHNYQAMYYDDGSFAGINEIVFNFKPWLDWYLQTTGQRLVGGEGHHHHHH”, the “soluble on expression in E. coli” value is recorded as “soluble”.
In the case of “MLADPAQPEHVFIVEDSRGATELKLYKSHYTIGKADSCDIRLHSIYASRQHATLVRFLTENGEVRYRLIDGDPETSRRSANGTYVNNRSITECDLKHYDQILFGADVKATYFYLSPQFRSLEHHHHHH” it was “not soluble”.
As to “MAILAARIAVSNLHKETKKVFSDVMEDLYNYINPHNGKHSPMVAKSTLDIVLANKDRLNSAIIYDRDFSYNYFGFKTLERSYLLKINGKVAERPQHMLMRVSVGIHKEDIDAAIETYNLLSERWFTHASPTLFNAGTNRPQLSSCFLLSMKDDSIEGIYDTLKQCALISKSAGGIGVAVSCIRATGSYIAGTNGNSNGLVPMLRVYNNTARYVDQGGNKRPGAFAIYLEPWHLDIFEFLDLKKNTGKEEQRARDLFFALWIPDLFMKRVETNQDWSLMCPNECPGLDEVWGEEFEKLYASYEKQGRVRKVVKAQQLWYAIIESQTETGTPYMLYKDSCNRKSNQQNLGTIKCSNLCTEIVEYTSKDEVAVCNLASLALNMYVTSEHTYDFKKLAEVTKVVVRNLNKIIDINYYPVPEACLSNKRHRPIGIGVQGLADAFILMRYPFESAEAQLLNKQIFETIYYGALEASCDLAKEQGPYETYEGSPVSKGILQYDMWNVTPTDLWDWKVLKEKIAKYGIRNSLLIAPMPTASTAQILGNNESIEPYTSNIYTRRVLSGEFQIVNPHLLKDLTERGLWHEEMKNQIIACNGSIQSIPEIPDDLKQLYKTVWEISQKTVLKMAAERGAFIDQSQSLNIHIAEPNYGKLTSMHFYGWKQGLKTGMYYLRTRAHHHHHH”, the “soluble on expression in E. coli” value is “soluble”.
Under “VRDVLDNQEFGFTGLHVAAAVADTLGTGDTLFAAASNSIRDLSLVGMPFDGVDTFSPRGVAGIDGSVAQAIGTSLAVQSRHPDEIRAPRTVALLGDLSFLHDIGGLLIGPDEPRPENLTIVVSNDNGGGIFELLETGADGLRPNFERAFGTPHDASIADLCAGYGIEHQVVDNLQDLIIALVDTTEVSGFTIIEASTVRDTRRAQQQALMDTVH” stands “not soluble”.
Take “MKESYYSIGEVSKLANVSIKALRYYDKIDLFKPAYVDPDTSYRYYTDSQLIHLDLIKSLKYIGTPLEEMKKAQDLEMEELFAFYTEQERQIREKLDFLSALEQTISLVKKRMKRQMEYPALGEVFVLDEEEIRIIQTEAEGIGPENVLNASYSKLKKFIESADGFTNNSYGATFSFQPYTSIDEMTYRHIFTPVLTNKQISSITPDMEITTIPKGRYACIAYNFSPEHYFLNLQKLIKYIADRQLTVVSDVYALIIPIHYSPKKQEEYRVEMKIRILDHHHHHH”: the “soluble on expression in E. coli” value was “soluble”.
In the case of “MGSDKIHHHHHHMSITKRIRDNQRNTVLSPVPPFPKSMMLEPSNACNHACRFCGNNRSGIKRVNIPVDFARDILAQAAALGVEEVGLYLRGEPFLHPRLNEIVSYAKASGIGYVYLSSNGGCGTTEAYEAVLEAGLDSFKFSINAGNRQDFKAIHGKDDFEKVVERLRWLIAYREATGLDFKIYVSSTFIDATRGAILAMRDEFAPLVDEYYVHGTCPVPGVKSTDLDHGFSLPCPMVFNRVHVTAEGYLNACCFDFENALAVADLTRVPLNDAWASPLFEDLRRKHLMRNAKGVLCGNCVAGGGVEYEPLVMEFMSRSKRHENP” it was “not soluble”; in that of “MNVTPWEVEGVIDYSKLIEEFGMQPFSEVLPEIDNPHILMRRGAIFGHRDYWRIIEAMQKKEPWAVMSGFMPSGLPHFGHKMTMDEIVWHQSAGGKAFVAIADMEAHSVRGLSWEKTRELGMLYIKSIIALGLREDAVIYFQSKSSHVKDLAFELSAEVNFSELRAIYGFNSDTSLAKMFVTAIQAADILHPQLSDFGGPKPVVVPVGADQDPHMRLTRDLAARISIFSFEPVEGGVRVRSRKGAEYLSSLRDLEFDKKIYEEHMDIFGEAEEIERAVRKIEVEIGGFAFIPPSSTYHRFTTGLTGGKMSSSKPESYISLLDPPEEGAKKVMKAFTGGRATAEEQRRLGGEPDRCVVFELYSFHLIDSDEELNQIEAECREGRLLCGKCKKMAAELVKSFLKEHQEKMEAVDLSNYTIIG”, “not soluble”.
In the case of “ASPIGEGTFDDGPEGWVAYGTDGPLDTSTGALCVAVPAGSAQYGVGVVLNGVAIEEGTTYTLRYTATASTDVTVRALVGQNGAPYGTVLDTSPALTSEPRQVTETFTASATYPATPAADDPEGQIAFQLGGFSADAWTLCLDDVALDSEVEL”, the “soluble on expression in E. coli” value is “soluble”.
For the sequence “MAVTKSSSLLIVGAGTWGTSTALHLARRGYTNVTVLDPYPVPSAISAGNDVNKVISSGQYSNNKDEIEVNEILAEEAFNGWKNDPLFKPYYHDTGLLMSACSQEGLDRLGVRVRPGEDPNLVELTRPEQFRKLAPEGVLQGDFPGWKGYFARSGAGWAHARNALVAAAREAQRMGVKFVTGTPQGRVVTLIFENNDVKGAVTADGKIWRAERTFLCAGASAGQFLDFKNQLRPTAWTLVHIALKPEERALYKNIPVIFNIERGFFFEPDEERGEIKICDEHPGYTNMVQSADGTMMSIPFEKTQIPKEAETRVRALLKETMPQLADRPFSFARICWCADTANREFLIDRHPQYHSLVLGCGASGRGFKYLPSIGNLIVDAMEGKVPQKIHELIKWNPDIAANRNWRDTLGRFGGPNRVMDFHDVKEWTNVQYRDISKL”, the “soluble on expression in E. coli” value is “soluble”.
Consider “MSNGGKRPPEDDSKLPYYKLVVIGDGGVGKSSLTIQFFQKQFVDYYDPTIEDQYIQHCEIDGNWVIMDVLDTAGQEEFSAMREQYIRGGRGFLLVFSVTERKSFEEAHKLYNQVLRVKDRSEYPVLLVANKVDLINQRVVSEQEGRELAAQLKLMYIETSAKEPPVNVDAAFHELVRIVRSFPSDEGDHEASMASVPRTKKRKDKGKCLIS”, for which the “soluble on expression in E. coli” value is given as “soluble”.
For the sequence “MGSDKIHHHHHHLLGDDPFLVINGDVFIDTLPVMPELKSINPDNGCLAHLWLVENPSQHPNGDFGFVSQEGVTTAELSQGPLSADLKLNFTFSGIGLYHPQLFDDIPEGPVPLGPLLREKMALGQVQGQLHRSFWCDVGTLERLAQLETRLELAARR”, the “soluble on expression in E. coli” value is recorded as “not soluble”.
On to “MSEKQSNEQVEAFLNKESQWQEEYKYLRALIFNETELEEAYKWMHPCYTLNNKNVVLIHGFKNYVALLFHKGAILEDKYHTLIQQTEKVQAARQLRFENLTEIQARTEEIKYYLAEAIKAEKAGKKVEMKKTEEYVIPKELEAKFEEMPQLESSFYKLTPGRQHQYIYHIGQAKRSETKQKRVEKYINQILEGKGMHDK”, for which the “soluble on expression in E. coli” value is “not soluble”.
